Reference: US20200071424A1 (SHIONOGI, published 2020)
Positions count from the first letter of the chain named.

T1: human [1-305]-mouse chimeric EL (human; mouse, UniProt Q9WVG5 306-500)
T1 sequence: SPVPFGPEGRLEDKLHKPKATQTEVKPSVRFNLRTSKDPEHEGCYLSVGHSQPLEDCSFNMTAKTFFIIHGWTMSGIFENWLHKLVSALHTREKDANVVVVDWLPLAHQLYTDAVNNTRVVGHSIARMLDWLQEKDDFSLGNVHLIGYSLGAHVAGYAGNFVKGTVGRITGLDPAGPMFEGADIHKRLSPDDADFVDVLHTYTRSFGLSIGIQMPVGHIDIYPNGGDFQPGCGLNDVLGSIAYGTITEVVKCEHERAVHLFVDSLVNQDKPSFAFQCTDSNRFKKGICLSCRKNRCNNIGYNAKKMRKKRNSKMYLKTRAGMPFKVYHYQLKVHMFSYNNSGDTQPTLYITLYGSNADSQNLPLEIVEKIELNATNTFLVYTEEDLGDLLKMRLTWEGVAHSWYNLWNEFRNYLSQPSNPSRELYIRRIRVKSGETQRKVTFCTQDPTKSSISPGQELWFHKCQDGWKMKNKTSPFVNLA

B1: h53A11-S2 (antibody, V domains shown)
VH: QVQLVQSGAEVKKPGASVKVSCKASGYTFTDYTMHWVRQAPGQRLEWMGGINPYYGGTTYNEKFKDRVTITRDTSASTAYMELSSLRSEDTAVYYCAKGDYYGGSYNYWGQGTTVTVSS
VL: EIVMTQSLATLSVSPGERATLSCRASQDISNSLHWYQQKPGQAPRLLIYYASQSISGIPARFSGSGSGTEFTLTISSLQSEDFAVYYCQQSNSWPYTFGQGTKLEIK
B2: h53A11-S3 (antibody, V domains shown)
VH: B1 VH
VL: B1 VL with L8P, Y49K
B3: h23H8-S3 (antibody, V domains shown)
VH: QVQLVQSGAEVKKPGASVKVSCKASGYTFTDNTIHWVRQAPGQGLEWMGHINPYYGGTNNNEKFKDRVTMTRDTSISTAYMELSRLRSDDTAVYYCARKGIYYSSPFDYWGQGTTVTVSS
VL: DIQMTQSPSSLSASVGDRVTITCRASQDINNYLNWYQQKPGKAPKLLISYTSKLHSGVPSRFSGSGSGTDFTLTISSLQPEDFATYYCQQGNTLPFTFGQGTKLEIK
B4: h13B3-S2 (antibody, V domains shown)
VH: QVQLVQSGAEVKKPGASVKVSCKASGYTFTEYTMHWVRQAPGQGLEWMGSINPYYGGTSYNEKFKDRVTSTRDTSISTAYMELSRLRSDDTVVYYCARYGNYVGYFDYWGQGTTVTVSS
VL: EIVLTQSPGTLSLSPGERATLSCRASSSVHYMYWYQQKPGQAPRLLIYYTSNLAPGIPDRFSGSGSGTDFTLTISRLEPEDFAVYYCQQFTSSPYTFGGGTKVEIK
B5: h13B3-S3 (antibody, V domains shown)
VH: B4 VH with S70M, I76T, A79V, R85S, D89E, V92A
VL: B4 VL with G9A, D59A, R76S
B6: h13B3-S4 (antibody, V domains shown)
VH: B4 VH
VL: B4 VL with G9A, D59A, R76S
B7: h16B3-S5 (antibody, V domains shown)
VH: EVQLVESGGGLVQPGGSLRLSCAASGFTFSGYTMSWVRQAPGKGLEWVSEISFARDRAFYPDTVKGRFTISRDNSKNTLYLQMNSLRAEDTAVYYCARLGGKNRDFWYFDLWGQGTTVTVSS
VL: DIVMTQSPDSLAVSLGERATINCRASESVEYYGTSLMQWYQQKPGQPPKLLIYAASNVESGVPDRFSGSGSGTDFTLTISSLQAEDVAVYYCQQSWKVPFTFGQGTKLEIK
notes: humanized
B8: h16B3-S3 (antibody, V domains shown)
VH: B7 VH with R104H, L111V
VL: B7 VL
notes: humanized
B9: h16B3-S4 (antibody, V domains shown)
VH: B7 VH with R104H, L111V
VL: B7 VL with K97R
notes: humanized
B10: h16B3-S6 (antibody, V domains shown)
VH: B7 VH
VL: B7 VL with K97R
notes: humanized
B11: h16B3-S7 (antibody, V domains shown)
VH: B7 VH with G31A, E50D
VL: B7 VL
notes: humanized
B12: h16B3-S8 (antibody, V domains shown)
VH: B7 VH with G31A, E50D
VL: B7 VL with K97R
notes: humanized
B13: h55A1-S4 (antibody, V domains shown)
VH: QVQLVQSGSELKKPGASVKVSCKASGYTFTNYAMNWVRQAPGQGLEWMGWINTYSGVGTYAGDFKGRFVFSLDTSVSTAYLQISSLKAEDTAVYYCARRGFYGRRFFDVWGKGTTVTVSS
VL: DIVLTQSPASLAVSPGQRATITCKASQSVDYDVDSYMHWYQQKPGQPPKLLIYAASNLASGVPARFSGSGSGTDFTLTINPVEANDTANYYCQQTIEDPPTFGGGTKVEIK
notes: humanized
B14: h55A1-S2 (antibody, V domains shown)
VH: B13 VH with A33G, M34L, G58P, F101Y
VL: B13 VL
notes: humanized
B15: h55A1-S3 (antibody, V domains shown)
VH: B13 VH with A33G, M34L, G58P, F101Y
VL: B13 VL with Q94N
notes: humanized
B16: h55A1-S5 (antibody, V domains shown)
VH: B13 VH
VL: B13 VL with Q94N
notes: humanized
B17: h55A1-S6 (antibody, V domains shown)
VH: B13 VH with M34L, D63E
VL: B13 VL
notes: humanized
B18: h55A1-S7 (antibody, V domains shown)
VH: B13 VH with M34L, D63E
VL: B13 VL with Q94N
notes: humanized
B19: h16B3-S1 (antibody, V domains shown)
VH: B7 VH with R98K, K102R, R104H, F106Y, L111V
VL: B7 VL
B20: h16B3-F1 (antibody, V domains shown)
VH: B7 VH with K102R, R104H, F106Y, L111V
VL: DIQMTQSPSSLSASVGDRVTITCRASESVEYYGTSLMQWYQQKPGKAPKLLIYAASNVESGVPSRFSGSGSGTDFTLTISSLQPEDFATYYCQQSWKVPFTFGQGTKLEIK
notes: humanized
B21: h16B3-F2 (antibody, V domains shown)
VH: B7 VH with K102R, R104H, F106Y, L111V
VL: EIVMTQSPATLSVSPGERATLSCRASESVEYYGTSLMQWYQQKPGQAPRLLIYAASNVESGIPARFSGSGSGTEFTLTISSLQSEDFAVYYCQQSWKVPFTFGQGTKLEIK
notes: humanized
B22: h16B3-F3 (antibody, V domains shown)
VH: B7 VH with K102R, R104H, F106Y, L111V
VL: B21 VL with M4L, A9G, V13L, A64D, E74D, S81R, Q83E, S84P
notes: humanized
B23: h55A1-F5 (antibody, V domains shown)
VH: QVQLVQSGAEVKKPGASVKVSCKASGYTFTNYGMNWVRQAPGQGLEWMGWINTYSGVPTYAGDFKGRFTFTLDTSTSTAYMELSSLRSEDTAVYYCARRGYYGRRYFDVWGKGTTVTVSS
VL: DIQLTQSPSSLSASVGDRVTITCKASQSVDYDVDSYMHWYQQKPGKAPKLLIYAASNLASGVPSRFSGSGSGTDFTLTISSLQPEDFATYYCQQTIEDPPTFGGGTKVEIK
notes: humanized
B24: h55A1-F1 (antibody, V domains shown)
VH: B13 VH with A33G, G58P, F101Y, F106Y
VL: B23 VL with L77F, F87I
notes: humanized
B25: h55A1-F3 (antibody, V domains shown)
VH: B23 VH with F68V, F70M, L72T, S84R, E89D
VL: B23 VL
notes: humanized
B26: h55A1-F2 (antibody, V domains shown)
VH: B23 VH with F68V, F70M, L72T, S84R, E89D
VL: EIVMTQSPATLSVSPGERATLSCKASQSVDYDVDSYMHWYQQKPGQAPRLLIYAASNLASGIPARFSGSGSGTEFTLTISSLQSEDFAVYYCQQTIEDPPTFGGGTKVEIK
notes: humanized

What follows are binders tested against T1, human [1-305]-mouse chimeric EL (assay: cell-based or functional assay).

Binder	Neutralizing activity IC50 [nM]
B1	2.7
B2	1.8
B3	2
B4	9
B5	2.1
B6	2.6
B7	1.2
B8	1.9
B9	1.7
B10	1
B11	1.4
B12	1.4
B13	1.1
B14	1.1
B15	1.2
B16	1.3
B17	1.2
B18	1
B19	2.7
B20	2.3
B21	2.4
B22	2
B23	1.3
B24	1.9
B25	1.1
B26	2.1

Each binder was assayed against T1, human [1-305]-mouse chimeric EL (assay: Biacore; EL captured by anti-C2-tag Ab; bivalent fit).
Protocol: The binding affinities of anti-EL antibodies were measured using Biacore. […] Then, anti-EL humanized antibodies were added and the binding affinities were calculated by bivalent fitting of BIAevaluation software.

Binder	Kd [nM]	koff [s⁻¹]	kon [M⁻¹ s⁻¹]
B7	1	5.7e-05	54000
B8	4.5	0.00013	30000
B9	3	0.00018	61000
B10	1	5.8e-05	60000
B11	1.2	5.9e-05	50000
B12	0.78	4e-05	52000
B13	3	0.00024	80000
B14	11	0.00037	35000
B15	4.2	0.00051	120000
B16	12	0.00033	27000
B17	1.4	6.3e-05	47000
B18	5.1	0.00055	110000
B20	5.2	0.0002	38000
B21	3.8	0.00011	29000
B22	10	0.0002	19000
B23	0.11	1.6e-05	140000
B24	0.084	1.7e-05	200000
B25	0.29	3.3e-05	110000
B26	0.17	2.6e-05	160000
